Measurements as given in patent US20190202912A1 (NEXTCURE, published 2019).
Blank lines part the entries; values can stand above or below the binder they belong to.

Columns and labels:
[1] = molecular target: T1, hS15 (Homo sapiens, UniProt Q6ZMC9); experiment: flow cytometry, live 293T.hS15 cells, 1 µg mAb/1E05 cells/100 µL, PE secondary
T1 construct: full length, cell surface; also called human Siglec-15; huS15
T1 sequence (membrane protein on cells, looked up): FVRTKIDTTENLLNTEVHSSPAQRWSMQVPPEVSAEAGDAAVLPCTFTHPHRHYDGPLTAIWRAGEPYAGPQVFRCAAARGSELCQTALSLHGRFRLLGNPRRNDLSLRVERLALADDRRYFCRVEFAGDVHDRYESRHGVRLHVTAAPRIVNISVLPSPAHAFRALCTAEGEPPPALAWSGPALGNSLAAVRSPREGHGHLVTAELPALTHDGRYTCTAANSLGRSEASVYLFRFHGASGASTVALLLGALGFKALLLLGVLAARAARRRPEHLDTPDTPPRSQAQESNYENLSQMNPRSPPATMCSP
Protocol: Cells were sorted to establish human S15 and mouse S15 stable cell lines. […] 1E05 cells in 100 μL FACS buffer were aliquoted to separate tubes and 1 μg of purified mAb was added. Cells were incubated at 4 degrees C. for 30 minutes, then washed twice with excess FACS buffer. Cells were resuspended in 100 μL FACS buffer and 0.005 μg of anti-mouse IgG-PE secondary antibody was added to samples, incubated for 30 minutes and washed twice with excess FACS buffer. Cells were fixed in fixation buffer and subsequently analyzed by flow cytometry.

[2] = molecular target: T2, S15-extra cellular domain (ECD) monomer (human, UniProt Q6ZMC9 20-263); experiment: BLI (Octet RED96), mAb on anti-human Fc sensors, S15-ECD monomer in solution, global fit
T2 construct: also called S15 monomer protein
T2 sequence: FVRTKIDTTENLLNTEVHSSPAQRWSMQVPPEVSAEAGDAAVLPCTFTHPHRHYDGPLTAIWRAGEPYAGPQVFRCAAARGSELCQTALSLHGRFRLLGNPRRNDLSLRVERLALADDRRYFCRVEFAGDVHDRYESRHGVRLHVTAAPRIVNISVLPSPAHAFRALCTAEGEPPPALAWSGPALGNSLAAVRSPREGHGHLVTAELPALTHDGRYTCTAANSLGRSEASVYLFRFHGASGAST
Protocol: Optimized KD experiments were performed on a ForteBio Octet RED96 instrument using anti-human Fc capture (AHC, 18-5060; ForteBio) sensors. Assay buffer was PBS containing 0.05% Tween-20 and regeneration buffer was 10 mM glycine (pH 1.5). First the antibodies were loaded at 1 μg/mL for 600 seconds. This was followed by a 60 second baseline step, a 300 second association step in S15-extra cellular domain (ECD) monomer, and finally a 1200 second dissociation step. The monomer concentrations ranged from 100 nM to 1.56 nM in a two-fold dilution series and a blank well was included. Data was processed using ForteBio's Data Analysis Software 7.0; a global fit was used, along with reference well subtraction. Reported values are the average of at least three independent octet runs.

[3] = molecular target: T3, mS15 (Mus musculus); experiment: flow cytometry titration, 293T cells transfected with mouse Siglec-15 (293T.mS15)
T3 construct: full length, cell surface; also called mouse Siglec-15
Protocol: […] Cells were incubated at 4 degrees C. for 30 minutes, then washed twice with excess FACS buffer. Cells were resuspended in 100 ul FACS buffer and 0.005 ug of anti-mouse IgG-PE secondary antibody was added to samples, incubated for 30 minutes and washed twice with excess FACS buffer. Cells were fixed in fixation buffer (2% formaldehyde in PBS) and subsequently analyzed by flow cytometry.

binding result [1]: binds
B1: 9A5 (antibody, V domains shown)
VH: HVQLQQSGAELARPGASVKLSCKASGYTFTSYGLIWVKQRTGQGLEWIGEIYPRSGNTYYNEKFKGKATLTADISSSTAYMELRSLTSEDSAVYFCASSSPHGDYWGQGTTLTVSS
VL: not shown

binding result [1]: binds
B2: NC28 (antibody, V domains shown)
VH: QVQLQQSGAELARPGASVKLSCKASGYTFISYGITWVKQRTGQGLEWIGEIHPRSGNTYYNENFKDRASLTADKSSSTAYMEVRSLTSEDSAVYFCARGGPGDYWGQGTTLTVSS
VL: not shown
notes: mouse anti-human Siglec-15 mAb; also called 28A

Kd [2]: 110 pM | koff [2]: 3.9e-05 s⁻¹ | kon [2]: 359000 M⁻¹ s⁻¹ | EC50 (read off the curve) [3]: ~0.05 µg/mL
B3: 1H3 (antibody, V domains shown)
VH: QVQLKESGPGLVAPSQSLSITCTVSGFSLSNYGVHWVRQPPGKGLEWLVLIWSDGSTTYNSALKSRLSISKDNSKSQVFLKMNSLQTGDTAMYYCARHPYDDYSGYYYTMDYWGQGTSVTVSS
VL: DIQMTQASSSLSVSLGGRVTITCKASDHINNWLAWYQQKPGNAPRLLISGATSLETGVPSRFSGSGSGKDYTLSITSLQTEDVATYYCQQYWSSPLTFGAGTKLELK
notes: Mouse anti-human Siglec-15 mAb

binding result [1]: binds
B4: NC63 (antibody, V domains shown)
VH: QVQLQQSGAELARPGASVKLSCKASGYTFTSYGISWVKQRTGQGLEWIGQIYPRSDNTYYNERFKGKATLTADKSSSTAYMALRSLTSEDSAVYFCAREGGPDYWGQGTTLTVSS
VL: not shown
notes: mouse anti-human Siglec-15 mAb; also called 63A

Kd [2]: 300 pM | koff [2]: 0.000123 s⁻¹ | kon [2]: 421000 M⁻¹ s⁻¹ | EC50 (read off the curve) [3]: ~0.05 µg/mL
B5: 5G12 (antibody, V domains shown)
VH: QVQLQQPGAELVKPGASVKMSCKASGYTFTSYWITWVIQRPGQGLEWIGDIYCGSDTMHYNEKFKNKATLTVDTSSSTAYMQLSSLTSEDSAVYYCARWWDYGSSYDYFDYWGQGTTLTVSS
VL: DIKMTQSPSSMYASLGERVTITCKASQDINSYLSWFQQKPGKSPKTLIYRANRLVDGVPSRFSGSGSGQDYSLTISSLEYEDMGIYYCLQYDEFPYTFGGGTKLEIKR
notes: as for B3
